± gives the standard deviation.
Assay: protein stability index of a GFP-peptide fusion (GPS, HEK-293T) (PSI 1-6); higher = more stable
Settings: c terminus: a fixed tail appended
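Further: 24-mer peptide tiles fused after GFP, lentivirally expressed, FACS-sorted into six equal bins by GFP/DsRed ratio, decoded by Illumina sequencing, PSI is the read-weighted mean bin number.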

Row | Sequence | protein stability index (treatment: DMSO) | protein stability index (treatment: MLN4924 1 uM, 8 h)
1 | QWLQSTSGSQRHMVGQKDSVILSV [TLE6] | 2.12 ± 0.093 | 2.29 ± 0.27
2 | YAVLAAEPELQVGIDIMKTSFPGR [AASDHPPT] | 2.61 ± 0.28 | 2.73 ± 0.4
3 | KSVLIPVYGVSKETFLSFLEYLYT [RHOBTB3] | 2.24 ± 0.38 | 2.22 ± 0.15
4 | NIQAGINENDFYDGAWCAGRNDLQ [CPXM2] |  | 3.48 ± 0.71
5 | TAGQERFRALAPMYYRGSAAAIIV [RAB22A] | 2.26 ± 0.091 | 2.25 ± 0.26
6 | DPMLDFYSDKNAKLTKESYPVVVA [TENT5D] | 3.77 ± 0.26 | 3.85 ± 0.23
7 | EHGDQLLSIRCQHQEQVEDLTASH [MTUS2] | 5.25 ± 0.23 | 5.09 ± 0.22
8 | AVQHFYNIKLEGKVPMHKLFLEML [ESRRG] | 2.06 ± 0.42 | 2.23 ± 0.22
9 | MEYCLEVIKENDPSGFLQISDALI [TRIM9] | 2.47 ± 0.29 | 2.69 ± 0.28
10 | PKDIAKLVPKTHLMSESEWRNLGV [CKS1B] | 2.8 ± 0.32 | 2.85 ± 0.34
11 | VLDELTLARADLEMQIENLKEELA [KRT17] | 3.04 ± 0.29 | 3.1 ± 0.37
12 | PQFTGILQLLQSRTSRKFLACRLT [INTS3] | 2.18 ± 0.41 | 2.16 ± 0.27
13 | TLNVIELNVQKTVDYTGQAKAQVR [STX11] | 2.93 ± 0.28 | 3.19 ± 0.31
14 | PLFSEDVVLKLFLSFSGSDVQNKL [SNX8] | 2.1 ± 0.45 | 2.31 ± 0.39
15 | RQSVENDIHGLRKVIDDTNITRLQ [KRT18] | 4.17 ± 0.22 | 4.13 ± 0.25
16 | DQTGKEVADRWYSEIKNYNFQQPG [GLIPR2] | 4.15 ± 0.34 | 3.88 ± 0.31
17 | DFQPREEAMLYHNQTAELRELLEF [P3H4] | 3.96 ± 0.28 | 4.01 ± 0.16
18 | QRDLSPTAEDAELSDFEECEETGE [FCHSD1] | 5.55 ± 0.21 | 5.54 ± 0.21
19 | PPSRGHGYRDYGHSRRHESYSRGY [RBMY1A1] | 3.96 ± 0.07 | 4.01 ± 0.32
20 | YQRNLPRPGQAPIGNPPVGPIGGM [ZNF207] | 2.87 ± 0.32 | 3.31 ± 0.41
21 | DKVIELHKSHRGMTPAEAEMHFLE [EPB41L3] | 4.51 ± 0.22 | 4.38 ± 0.14
22 | EKFSDEGDSDSALDSVSPCPSSPK [DLC1] | 5.41 ± 0.51 | 5.58 ± 0.13
23 | RADQLCQQELRELRRELELLGRER [PRPH] | 3.45 ± 0.17 | 3.37 ± 0.56

Row | Sequence | protein stability index (treatment: DMSO) | protein stability index (treatment: MLN4924 1 uM, 8 h)
24 | VIDLAESLVADNCVTLVWRMPDED [FSD1] | 2.35 ± 0.33 | 2.79 ± 0.27
25 | GEELADVGGVLRGLNHSLSYDVAL [SCARA5] | 3.4 ± 0.17 | 3.41 ± 0.21
26 | PQYTIRCRPLQFQPSKSHKKVLKK [ATE1] | 3.6 ± 0.09 | 3.88 ± 0.3
27 | MGNSMKSTPAPAERPLPNPEGLDS [SLA] | 5.07 ± 0.49 | 5.13 ± 0.59
28 | DWEAVPQRKLKPPIVPKIAGDGDT [PRKX] | 4.9 ± 0.21 | 4.87 ± 0.24
29 | FSHDGLHVASLADDKMVRFWRIDE [WSB1] | 2.44 ± 0.48 | 2.72 ± 0.52
30 | GLQAQILHCYRDRPHEVLLCSDLV [CHCHD6] | 2.39 ± 0.39 | 2.16 ± 0.33
31 | TSLGLTYDGMLSDVQSMPKTGILI [MAGEA10] | 1.93 ± 0.39 | 2.13 ± 0.41
32 | ERDALEAVFRFWAGGEKGPQAFPM [DNAAF3] | 2.5 ± 0.24 | 2.58 ± 0.28
33 | WFLVPISSVICNDITAYLFGFFFG [CDS1] | 2.75 ± 0.036 | 3.16 ± 1
34 | KLSCLFAGPHSTLTPPCSPPEDGL [SNX8] | 3.25 ± 0.18 | 3.19 ± 0.4
35 | ESLTEDEATQFLKQILDGVHYLHS [DAPK3] | 3.06 ± 0.28 | 3.29 ± 0.28
36 | ITHSTYSLPASSYSQDPVYANGGL [NOL4L] | 2.96 ± 0.32 | 3.18 ± 0.2
37 | RTSTFDPSHSDNLLHGLNLLWRKQ [KLHL14] | 2.96 ± 0.17 | 2.94 ± 0.15
38 | LKFHKLVNVTIHFRLKTINLQSLI [MCOLN1] | 3.17 ± 0.37 | 3.12 ± 0.31
39 | LGVDTAETSYLEMAAGSEPESVEA [KMT2E] | 5.27 ± 0.32 | 5.5 ± 0.42
40 | EGHQAWIVGIVEKGNRTARIIDKP [SEPHS2] | 1.95 ± 0.24 | 2.42 ± 0.43
41 | FEGEGDYEEGMYADWWQEPDAKGD [P3H4] | 5.31 ± 0.12 | 5.35 ± 0.16
42 | ADISEAEQRTIQAQKESLQNQHHS [APBB1IP] | 5.2 ± 0.38 | 5.23 ± 0.15
43 | QTTTAYKKTHETLSHAGQKATAAF [TPD52L1] | 4.08 ± 0.34 | 3.98 ± 0.27
44 | ILCNKTAYQEVFKPENISLRNKLR [SMG5] | 2.46 ± 0.24 | 2.77 ± 0.23
45 | STNGEKTKSPCESNNKKNDEMQEV [SPANXN3] | 5.53 ± 0.16 | 5.41 ± 0.19
46 | TIRLRPRQVLCEKCKSTLSPPEAS [PWWP2B] | 3.23 ± 0.3 | 3.75 ± 0.6

Row | Sequence | protein stability index (treatment: DMSO) | protein stability index (treatment: MLN4924 1 uM, 8 h)
47 | SNANYSVKKCIFLLFINHRLVEST [MLH1] | 3.35 ± 0.46 | 3.25 ± 1.2
48 | ASSNVFSNFEQTQIQEFKEAFTLM [MYL5] | 3.49 ± 0.18 | 3.42 ± 0.27
49 | QKFRNQFLSFSMYQSFVQFLQYYY [TMEM120A] | 2.42 ± 0.21 | 2.41 ± 0.17
50 | SKYVKLNVGGALYYTTMQTLTKQD [KCTD10] | 2.15 ± 0.25 | 2.44 ± 0.33
51 | PLMVASAQSGERECHIVVLTDDDV [BTBD10] | 3.71 ± 0.32 | 3.92 ± 0.15
52 | RRGWRPSSREDSLEAGLPLQVRGY [CHGA] | 3.42 ± 0.47 | 3.8 ± 0.27
53 | SKNEDRGEEEAESSISSTSNEQLK [ZMYND11] | 5.33 ± 0.63 | 5.49 ± 0.21
54 | CVARPGTPSLLRFALASLLQSAPD [ZSWIM9] | 2.19 ± 0.18 | 2.24 ± 0.31
55 | EVILLVVMAYDRYMAICKPLHELI [OR4A15] | 3.26 ± 0.43 | 2.97 ± 0.44
56 | TFASLIGPFGGFFASGFKRAFKIK [CDS1] | 2.66 ± 0.73 | 1.85 ± 0.26
57 | IYVVGGYSWNNRCMVEIVQKYDPD [KLHL13] | 2.99 ± 1.6 | 2.91 ± 1.3
58 | LLDKLAKENQDIRLLQAQLQAQKE [PBXIP1] | 4.37 ± 0.33 | 4.21 ± 0.27
59 | NVPRICGVCGDRATGFHFNAMTCE [VDR] | 2.83 ± 0.39 | 2.73 ± 0.2
60 | CLMIGRDLVRLLQNVARIPEFELL [INTS3] | 2.49 ± 0.17 | 2.24 ± 0.25
61 | GSPEQLQIPVTDSGRHILEDSCAE [SDE2] | 5.18 ± 0.27 | 5.5 ± 0.35
62 | NKTEVTPRLWTTCRDGEVLLRLSK [ACSBG2] | 2.4 ± 0.22 | 2.37 ± 0.21
63 | RRFNFFVLENNLEAVARHMLIFSL [DNAAF3] | 2.77 ± 0.49 | 2.6 ± 0.47
64 | SIFYDLPQGSGFCLGQLNLEQRSE [SMAD6] | 3.21 ± 0.21 | 3.45 ± 0.25
65 | VSGFCRSPPVMVAGGRVFVLPCIQ [FLOT1] | 2.43 ± 0.38 | 2.45 ± 0.5
66 | CLTAGPEVAAQLPAVRQLLPCARV [ZSWIM9] | 2.94 ± 0.21 | 2.97 ± 0.41
67 | HSEVVEELVSADVIDLFDEQGLSA [RIPK4] | 5.02 ± 0.52 | 4.98 ± 0.52
68 | DESGGPDNEDYPLFRELWRYHFAT [KLHDC10] | 2.95 ± 0.29 | 2.99 ± 0.27
69 | LEIELQSQLSMKASLENSLEETKG [KRT16] | 5.28 ± 0.066 | 5.16 ± 0.17

Row | Sequence | protein stability index (treatment: DMSO) | protein stability index (treatment: MLN4924 1 uM, 8 h)
70 | KGRTIYLEDIYVMPEYRGQGIGSK [SAT2] | 2.44 ± 0.31 | 2.79 ± 0.12
71 | VPARDGTSCKLTDLRGVCVSGKCE [ADAMTSL2] | 3.95 ± 0.23 | 3.92 ± 0.29
72 | HNIFLLGGSSTSERCLLNNSLWKK [NLN] | 2.39 ± 0.13 | 2.24 ± 0.39
73 | FNSILPGVLILFLTFFAFLHCWLN [SOAT1] | 2.22 ± 0.63 | 2.29 ± 0.36
74 | SEFRALQFSLMLCAFVGALGGAAF [SPNS1] | 3.14 ± 0.048 | 3.04 ± 0.79
75 | EDENIEVVYSKAASVPKVETVKSD [EIF5] | 5.44 ± 0.41 | 5.4 ± 0.19
76 | KQLVSPAAALLSNTTCQTENRLSV [PTGFR] | 3.74 ± 0.25 | 3.99 ± 0.2
77 | AKLHDVELHQVAERVEALGQFVMK [GNB5] | 3.78 ± 0.2 | 3.74 ± 0.14
78 | GYSLADWVCLAYFTSGFNAAALDY [SPACA3] | 3.33 ± 0.44 | 2.98 ± 0.13
79 | SLIEDLQRELEIPEQQVDMHDMLL [ZNF449] | 3.56 ± 0.35 | 3.51 ± 0.34
80 | YFGSFATVGLLWFAHHSLFLHVRK [TMEM175] | 3.17 ± 0.56 | 3.15 ± 0.42
81 | AEKVNQDMCMKVPDDPEHLAARRQ [CRYL1] | 5.27 ± 0.61 | 5.15 ± 0.26
82 | ESAKDWETSPLPGMLAPAAGPAFD [PPFIA4] | 4.62 ± 0.076 | 4.61 ± 0.33
83 | EVESLTAARNACRAGTEPSDAIRV [TRIP13] | 4.33 ± 0.15 | 4.51 ± 0.27
84 | PAPAPLVPQDPDLEEEEEEEDLVL [ZBTB22] | 5.59 ± 0.33 | 5.69 ± 0.2
85 | DIETACKLLNITADPMDWSPSNVQ [SPDEF] | 2.75 ± 0.42 | 2.77 ± 0.17
86 | MNKGDTEVMKCIVEVISDTLSKPS [CHGA] | 2.84 ± 0.3 | 2.86 ± 0.31
87 | SVVNVGCGPAEERVLLTGLHAVAD [YPEL3] | 3 ± 0.78 | 3.29 ± 0.7
88 | YENCLQALADVEVKYIVERTMLDF [NLN] | 2.08 ± 0.28 | 2.22 ± 0.51
89 | DLGGSIYANLALSGLIEIQSYPLC [SLC22A15] | 3.02 ± 0.72 | 2.63 ± 0.76
90 | AKHRLVPPAQGRVSRRLSPRKVST [TRIM9] | 4.37 ± 0.23 | 4.65 ± 0.12

From the supplement of paper PMC10567573
